# Results published in US20210171647A1 (WUXI BIOLOGICS SHANGHAI, published 2021).
# Numbering of substitutions follows the chain as printed.
# B1: 1.134.9-u1-IgG1L (antibody, V domains shown)
# VH: QVQLQESGPGLVKPSGTLSLTCAVSGGSISSYNWWSWVRQPPGKGLEWIGEIYHGGNTNYNPSLKSRVTMSVDNSKNQFSLKLSSVTAADTAVYYCARAPGDWGGSPYFDFWGQGTLVTVSS
# VL: SSELTQDPAVSVALGQTVRITCQGDNLRTYYASWYQQKPGQAPILLIYGRNKRPSGIPDRFSGSSSGNTASLTITGAQAEDEAAYYCNSRDSSGNPVVFGGGTKLTVL
# notes: fully human IgG1, lambda
# What was measured:
# Assay in all cases: ELISA, antibody coated, OX40-ECD.His mutant supernatant; relative to silent alanine substitutions;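 note: captured OX40 mutant protein detected with HRP-labelled anti-His antibody, absorbance read-out, scaled to the mean signal of control mutants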
# human OX40-ECD.His N50A = target: T1, human OX40-ECD.His N50A (human, UniProt P43489 29-214)
# T1 construct: extracellular domain; not shown: C-terminal His-tag
# T1 sequence (looked up): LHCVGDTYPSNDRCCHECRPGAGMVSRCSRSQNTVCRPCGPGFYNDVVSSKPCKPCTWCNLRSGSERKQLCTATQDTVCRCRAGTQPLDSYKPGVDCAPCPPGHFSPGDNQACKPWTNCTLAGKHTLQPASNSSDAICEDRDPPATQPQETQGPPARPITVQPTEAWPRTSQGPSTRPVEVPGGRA
# human OX40-ECD.His Q156A = target: T2, human OX40-ECD.His Q156A (human, UniProt P43489 29-214)
# T2 construct: extracellular domain; not shown: C-terminal His-tag
# T2 sequence (looked up): T1 sequence (looked up) with A22N, Q128A
# human OX40-ECD.His S162A = target: T3, human OX40-ECD.His S162A (human, UniProt P43489 29-214)
# T3 construct: extracellular domain; not shown: C-terminal His-tag
# T3 sequence (looked up): T1 sequence (looked up) with A22N, S134A
# human OX40-ECD.His R90A = target: T4, human OX40-ECD.His R90A (human, UniProt P43489 29-214)
# T4 construct: extracellular domain; not shown: C-terminal His-tag
# T4 sequence (looked up): T1 sequence (looked up) with A22N, R62A
# human OX40-ECD.His P115A = target: T5, human OX40-ECD.His P115A (human, UniProt P43489 29-214)
# T5 construct: extracellular domain; not shown: C-terminal His-tag
# T5 sequence (looked up): T1 sequence (looked up) with A22N, P87A
# human OX40-ECD.His T145A = target: T6, human OX40-ECD.His T145A (human, UniProt P43489 29-214)
# T6 construct: extracellular domain; not shown: C-terminal His-tag
# T6 sequence (looked up): T1 sequence (looked up) with A22N, T117A
# human OX40-ECD.His D104A = target: T7, human OX40-ECD.His D104A (human, UniProt P43489 29-214)
# T7 construct: extracellular domain; not shown: C-terminal His-tag
# T7 sequence (looked up): T1 sequence (looked up) with A22N, D76A
# human OX40-ECD.His A111G = target: T8, human OX40-ECD.His A111G (human, UniProt P43489 29-214)
# T8 construct: extracellular domain; not shown: C-terminal His-tag
# T8 sequence (looked up): T1 sequence (looked up) with A22N, A83G
# human OX40-ECD.His K142A = target: T9, human OX40-ECD.His K142A (human, UniProt P43489 29-214)
# T9 construct: extracellular domain; not shown: C-terminal His-tag
# T9 sequence (looked up): T1 sequence (looked up) with A22N, K114A
# human OX40-ECD.His R110A = target: T10, human OX40-ECD.His R110A (human, UniProt P43489 29-214)
# T10 construct: extracellular domain; not shown: C-terminal His-tag
# T10 sequence (looked up): T1 sequence (looked up) with A22N, R82A
binder,measurement,setting,value
B1,Fold Change,human OX40-ECD.His N50A,0.961
same,Fold Change,human OX40-ECD.His Q156A,0.97
same,Fold Change,human OX40-ECD.His S162A,0.998
same,Fold Change,human OX40-ECD.His R90A,1.01
same,Fold Change,human OX40-ECD.His P115A,0.632
same,Fold Change,human OX40-ECD.His T145A,0.675
same,Fold Change,human OX40-ECD.His D104A,0.692
same,Fold Change,human OX40-ECD.His A111G,0.853
same,Fold Change,human OX40-ECD.His K142A,0.921
same,Fold Change,human OX40-ECD.His R110A,0.955
